Blank lines part the entries; values can stand above or below the binder they belong to.
Legend:
CR-Fc [1] = biological target: T1, CR-Fc (UniProt P13385 31-169); assay: ELISA, ligand coated on the plate, CR-Fc detected with anti-Fc-alkaline phosphatase
T1 construct: not shown: Fc part; not described
T1 sequence (looked up): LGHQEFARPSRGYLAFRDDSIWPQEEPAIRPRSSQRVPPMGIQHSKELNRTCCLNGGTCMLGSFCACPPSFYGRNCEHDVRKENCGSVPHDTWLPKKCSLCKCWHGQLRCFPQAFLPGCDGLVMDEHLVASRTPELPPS
Procedure: We discovered that Cripto binds directly to Activin B. We coated ELISA plates with purified Activin B, Activin A, TGFβ1, GDNF or BMP2 and incubated with CR-Fc. We then added anti-Fc antibody conjugated to alkaline phosphatase and monitored binding by adding an alkaline phosphatase substrate and developing. We observed that CR-Fc bound to wells containing Activin B, but not to Activin A or the other ligands (FIG. 8). In addition, we pre-incubated CR-Fc with Activin A or B in solution before adding to an Activin B coated plate and observed that only Activin B inhibited binding (FIG. 9).

CR-Fc [2] = biological target: T1, CR-Fc; assay: Biacore, competition format in solution
LTβR-Fc = biological target: T2, LTβR-Fc (UniProt P36941 31-227); assay: Biacore, Fc fusion protein immobilized on the chip
T2 construct: Control protein on the Biacore chip; also called LT-beta receptor-Fc; control LTβR-Fc protein; not shown: Fc part; not described
T2 sequence (P36941 31-227): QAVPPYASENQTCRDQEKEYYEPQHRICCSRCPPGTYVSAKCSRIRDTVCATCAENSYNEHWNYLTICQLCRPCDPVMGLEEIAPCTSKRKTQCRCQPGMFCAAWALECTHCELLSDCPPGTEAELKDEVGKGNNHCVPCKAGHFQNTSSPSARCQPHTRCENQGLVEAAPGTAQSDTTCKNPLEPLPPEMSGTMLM
From the text: We also analyzed the Cripto-Activin B interaction using Biacore. We discovered that Activin B directly binds CR-Fc immobilized on a Biacore chip with a high intensity, but not to a control LTβR-Fc protein (FIG. 10). We also observed that Activin A binding to CR-Fc was negligible.

binding result (CR-Fc [1]): no binding
B1: Activin A (ligand, UniProt P08476 311-426, looked up)
chain: GLECDGKVNICCKKQFFVSFKDIGWNDWIIAPSGYHANYCEGECPSHIAGTSGSSLSFHSTVINHYRMRGHSPFANLKSCCVPTKLRPMSMLYYDDGQNIIKKDIQNMIVEECGCS

Kd (CR-Fc [2]): ~1 nM | binding result (LTβR-Fc): no binding
B2: Activin B (ligand, UniProt P09529 293-407, looked up)
chain: GLECDGRTNLCCRQQFFIDFRLIGWNDWIIAPTGYYGNYCEGSCPAYLAGVPGSASSFHTAVVNQYRMRGLNPGTVNSCCIPTKLSTMSMLYFDDEYNIVKRDVPNMIVEECGCA

binding result (CR-Fc [1]): no binding
B3: BMP2 (ligand, UniProt P12643 283-396, looked up)
chain: QAKHKQRKRLKSSCKRHPLYVDFSDVGWNDWIVAPPGYHAFYCHGECPFPLADHLNSTNHAIVQTLVNSVNSKIPKACCVPTELSAISMLYLDENEKVVLKNYQDMVVEGCGCR

binding result (CR-Fc [1]): no binding
B4: GDNF (ligand, UniProt P39905 78-211, looked up)
chain: SPDKQMAVLPRRERNRQAAAANPENSRGKGRRGQRGKNRGCVLTAIHLNVTDLGLGYETKEELIFRYCSGSCDAAETTYDKILKNLSRNRRLVSDKVGQACCRPIAFDDDLSFLDDNLVYHILRKHSAKRCGCI
